Results from publication doi:10.1101/2025.03.07.642083.

Target: T1, ToAubZL (Aureochrome1 bZIP+LOV) (Thalassiosira oceanica, UniProt K0SY93 276-520)
T1 sequence: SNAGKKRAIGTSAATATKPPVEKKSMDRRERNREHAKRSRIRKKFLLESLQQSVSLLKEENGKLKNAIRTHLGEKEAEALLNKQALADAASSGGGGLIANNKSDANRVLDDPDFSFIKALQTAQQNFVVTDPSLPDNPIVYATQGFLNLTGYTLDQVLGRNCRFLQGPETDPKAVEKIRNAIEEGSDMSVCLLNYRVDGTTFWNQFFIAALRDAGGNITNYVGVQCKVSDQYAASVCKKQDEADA
Experiment: EMSA

B1: Aureo-box substrate DNA (dsDNA)
DNA 1: TGTAGCGTCTGACGTGGTTCCCAC
DNA 2: GTGGGAACCACGTCAGACGCTACA
binding result: binds
